Holding throughout (experiment): fluorescence anisotropy; 20 mM Tris-HCl pH 8.5, 10 mM KCl, 10 mM (NH4)2SO4 (ionic strength 40); 10 nM Hex primer-template; rest of buffer and temperature not in material
Holding throughout (settings): protein: recombinant; label: 5'-hexachlorofluorescein on primer (strand 1); 5' overhang 20 nt on template (strand 2)
In general terms: Polarisation of emitted light reports the rotation of a fluorescent probe.

One data set has as its target T1, Pfu-Pol L381R/K502R (Pyrococcus furiosus, UniProt P61875 1-775, L381R;K502R).
T1 sequence: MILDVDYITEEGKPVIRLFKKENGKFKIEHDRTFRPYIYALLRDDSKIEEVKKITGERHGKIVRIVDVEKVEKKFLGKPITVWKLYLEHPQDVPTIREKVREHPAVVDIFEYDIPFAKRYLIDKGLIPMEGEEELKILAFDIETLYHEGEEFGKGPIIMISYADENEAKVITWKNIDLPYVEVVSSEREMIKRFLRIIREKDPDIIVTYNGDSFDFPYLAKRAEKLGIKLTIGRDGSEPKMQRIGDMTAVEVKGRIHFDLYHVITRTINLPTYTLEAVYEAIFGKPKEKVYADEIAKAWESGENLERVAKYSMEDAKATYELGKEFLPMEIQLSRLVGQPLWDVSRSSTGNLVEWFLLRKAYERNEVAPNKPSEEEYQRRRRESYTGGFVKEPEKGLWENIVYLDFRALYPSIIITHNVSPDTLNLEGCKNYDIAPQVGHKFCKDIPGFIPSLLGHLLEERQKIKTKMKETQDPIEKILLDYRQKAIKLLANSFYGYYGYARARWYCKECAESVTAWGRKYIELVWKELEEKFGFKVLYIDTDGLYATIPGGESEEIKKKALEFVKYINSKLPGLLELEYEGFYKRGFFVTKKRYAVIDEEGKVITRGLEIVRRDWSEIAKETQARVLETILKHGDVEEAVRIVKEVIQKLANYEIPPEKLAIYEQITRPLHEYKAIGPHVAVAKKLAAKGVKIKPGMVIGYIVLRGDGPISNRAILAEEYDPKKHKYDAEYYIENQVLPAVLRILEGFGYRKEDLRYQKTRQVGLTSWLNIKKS

Data set [1] has as its target T2, Pfu-Pol wild type (family-B DNA polymerase) (Pyrococcus furiosus, UniProt P61875 1-775).
T2 sequence: T1 sequence with R381L, R502K

The target in another data set is T3, Pfu-TkodTS (thumb swap) (Pyrococcus furiosus / Thermococcus …, UniProt P61875 1-590+D0VWU9:590-774, internal_change).
T3 sequence: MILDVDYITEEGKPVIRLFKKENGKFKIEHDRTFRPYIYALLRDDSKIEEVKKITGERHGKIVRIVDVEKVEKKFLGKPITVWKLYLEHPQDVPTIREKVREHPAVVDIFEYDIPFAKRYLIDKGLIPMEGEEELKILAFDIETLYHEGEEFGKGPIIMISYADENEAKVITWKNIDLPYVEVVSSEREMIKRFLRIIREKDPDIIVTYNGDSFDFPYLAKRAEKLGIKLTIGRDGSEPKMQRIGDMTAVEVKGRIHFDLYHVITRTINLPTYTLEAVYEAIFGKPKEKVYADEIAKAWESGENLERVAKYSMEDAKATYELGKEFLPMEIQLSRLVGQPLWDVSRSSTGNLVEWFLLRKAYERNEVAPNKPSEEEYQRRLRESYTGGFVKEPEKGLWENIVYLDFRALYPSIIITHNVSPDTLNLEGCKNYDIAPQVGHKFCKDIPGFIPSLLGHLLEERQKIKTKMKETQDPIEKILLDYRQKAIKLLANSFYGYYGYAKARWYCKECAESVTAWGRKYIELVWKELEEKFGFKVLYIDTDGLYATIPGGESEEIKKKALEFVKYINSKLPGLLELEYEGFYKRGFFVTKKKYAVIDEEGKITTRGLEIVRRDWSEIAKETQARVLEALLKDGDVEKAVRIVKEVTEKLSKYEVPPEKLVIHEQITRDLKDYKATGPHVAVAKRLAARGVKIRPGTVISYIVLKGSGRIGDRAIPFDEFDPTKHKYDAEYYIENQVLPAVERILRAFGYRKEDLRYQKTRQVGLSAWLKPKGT

The next data set has as its target T4, Pfu-TkodTS L381R/K502R (Pyrococcus furiosus / Thermococcus …, UniProt P61875 1-590+D0VWU9:590-774, L381R;K502R;internal_change).
T4 sequence: T3 sequence with L381R, K502R

Another data set addresses T5, Pfu-Pol M247R/L381R (Pyrococcus furiosus, UniProt P61875 1-775, M247R;L381R).
T5 sequence: T1 sequence with M247R, R502K

The target in data set [2] is T6, Tkod-Pol wild type (family-B DNA polymerase) (Thermococcus kodakarensis, UniProt D0VWU9 1-774).
T6 sequence: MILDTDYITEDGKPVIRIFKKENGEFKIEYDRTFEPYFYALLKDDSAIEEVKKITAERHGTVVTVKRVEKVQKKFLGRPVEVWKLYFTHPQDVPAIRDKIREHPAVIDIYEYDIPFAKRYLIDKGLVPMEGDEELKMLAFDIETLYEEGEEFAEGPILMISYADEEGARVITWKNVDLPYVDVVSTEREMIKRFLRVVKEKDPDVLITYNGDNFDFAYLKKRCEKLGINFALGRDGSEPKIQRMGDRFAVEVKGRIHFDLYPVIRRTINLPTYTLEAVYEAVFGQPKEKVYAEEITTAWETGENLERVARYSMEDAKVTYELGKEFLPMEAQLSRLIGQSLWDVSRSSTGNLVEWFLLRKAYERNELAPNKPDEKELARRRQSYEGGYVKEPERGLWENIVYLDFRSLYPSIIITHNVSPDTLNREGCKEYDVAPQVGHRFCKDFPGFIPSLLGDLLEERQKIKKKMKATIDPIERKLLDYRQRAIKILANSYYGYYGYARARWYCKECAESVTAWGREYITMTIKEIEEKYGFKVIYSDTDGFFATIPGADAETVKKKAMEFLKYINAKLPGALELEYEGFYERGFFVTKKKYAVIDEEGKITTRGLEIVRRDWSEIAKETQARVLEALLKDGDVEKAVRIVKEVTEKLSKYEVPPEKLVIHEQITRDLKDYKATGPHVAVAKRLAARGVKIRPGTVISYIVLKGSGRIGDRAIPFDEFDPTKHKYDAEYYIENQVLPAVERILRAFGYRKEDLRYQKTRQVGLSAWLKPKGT

Experimental findings from publication PMC4034419, “DNA polymerase hybrids derived from the family-B enzymes of Pyrococcus furiosus and Thermococcus kodakarensis: improving performance in the polymerase chain reaction” are described below.

Numbering of substitutions follows the chain as printed.

B1: Hex primer-template (24/44) (dsDNA)
DNA 1: GGGGATCCTCTAGAGTCGACCTGC
DNA 2: GGAGACAAGCTTGCTTGCCAGCAGGTCGACTCTAGAGGATCCCC
For the molecule B1, the Kd (as a rule, the equilibrium constant for the complex coming apart) is 107 ± 13 nM with Pfu-Pol L381R/K502R; 251 ± 23 nM in data set [1]; 95 ± 7 nM with Pfu-TkodTS (thumb swap); 50 ± 7 nM with Pfu-TkodTS L381R/K502R; 70 ± 9 nM with Pfu-Pol M247R/L381R; 276 ± 18 nM in data set [2].
